In paper PMC4072508, “Genome-Wide Prediction and Validation of Peptides That Bind Human Prosurvival Bcl-2 Proteins” (PLoS Computational Biology, 2014):
Values joined by “and” are separate entries in the source; they are usually repeats but may differ in a detail not shown here. Equal values may be shown once.

Experiments:
[1] = target: peptide based on the putative BH3 motif in Aven (human); assay: peptide or protein array; peptide SPOT arrays on nitrocellulose membranes; 1 µM or 100 nM c-Myc-tagged receptor in TBS (50 mM Tris, pH 8.1, 100 mM NaCl, 0.01% Triton X-100), 1 h, room temperature; detected with anti-c-myc-Cy3; signal given as percent of the Bim BH3 signal
[2] = target: PXT1 BH3-like peptide (human); assay: fluorescence polarisation; direct binding: 10 nM FAM-labeled peptide, receptor serially diluted; 25°C; 20 mM NaPO4, 50 mM NaCl, 1 mM EDTA, 0.001% Triton X, pH 7.8; single-site binding model
Bcl-xL = Bcl-xL (UniProt Q07817); assay: peptide SPOT array, c-Myc-tagged receptor at 1 uM or 100 nM, anti-c-Myc-Cy3
Bfl-1 [3] = target: Bfl-1 (UniProt Q16548); assay: as above
Target sequence in this assay (Q16548 1-151): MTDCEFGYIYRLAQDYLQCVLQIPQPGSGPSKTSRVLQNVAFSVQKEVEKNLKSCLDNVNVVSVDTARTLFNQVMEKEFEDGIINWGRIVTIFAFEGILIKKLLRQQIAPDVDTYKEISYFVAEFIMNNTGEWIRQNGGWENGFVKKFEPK

Mcl-1 [4] = target: Mcl-1 (UniProt Q07820); assay: as above
Target sequence in this assay (Q07820 172-327): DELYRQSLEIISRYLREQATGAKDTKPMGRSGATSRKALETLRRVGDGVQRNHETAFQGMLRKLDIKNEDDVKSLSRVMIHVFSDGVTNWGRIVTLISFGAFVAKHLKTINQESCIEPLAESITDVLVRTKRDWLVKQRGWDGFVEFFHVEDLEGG

Bcl-2 [5] = target: Bcl-2 (UniProt P10415); assay: fluorescence polarisation; binding assay in solution; direct or competition not told for this peptide (MRPL41 was unlabeled in Figure S2)
Target sequence in this assay (P10415 whole entry): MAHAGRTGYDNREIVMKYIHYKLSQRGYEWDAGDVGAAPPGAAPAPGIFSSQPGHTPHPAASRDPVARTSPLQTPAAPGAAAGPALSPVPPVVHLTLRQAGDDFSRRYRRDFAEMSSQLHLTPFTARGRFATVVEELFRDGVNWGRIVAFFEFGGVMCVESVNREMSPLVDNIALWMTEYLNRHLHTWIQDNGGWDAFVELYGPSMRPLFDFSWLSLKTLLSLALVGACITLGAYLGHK

Bfl-1 [6] = target: Bfl-1 (UniProt Q16548); conditions: cited from earlier work
Target sequence in this assay (Q16548 whole entry): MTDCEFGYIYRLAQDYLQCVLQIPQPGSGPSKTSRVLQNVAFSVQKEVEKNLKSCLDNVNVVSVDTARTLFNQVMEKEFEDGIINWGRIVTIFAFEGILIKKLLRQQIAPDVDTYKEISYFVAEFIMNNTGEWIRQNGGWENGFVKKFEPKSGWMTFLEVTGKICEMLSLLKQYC

Mcl-1 [7] = target: Mcl-1 (UniProt Q07820); conditions: cited from earlier work
Target sequence in this assay (Q07820 whole entry): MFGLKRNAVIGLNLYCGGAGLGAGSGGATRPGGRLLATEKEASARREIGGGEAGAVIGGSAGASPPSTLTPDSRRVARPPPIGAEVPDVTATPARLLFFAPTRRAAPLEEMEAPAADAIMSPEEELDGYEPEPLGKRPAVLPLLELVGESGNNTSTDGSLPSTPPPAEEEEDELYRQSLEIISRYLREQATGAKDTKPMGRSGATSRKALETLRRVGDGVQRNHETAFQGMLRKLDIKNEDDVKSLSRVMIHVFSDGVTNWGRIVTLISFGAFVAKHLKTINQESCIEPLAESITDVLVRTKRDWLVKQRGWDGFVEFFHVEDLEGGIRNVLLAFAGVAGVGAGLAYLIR

Bcl-w = Bcl-w (UniProt Q92843); assay: peptide SPOT array, c-Myc-tagged receptor at 1 uM or 100 nM, anti-c-Myc-Cy3
Bcl-2 [8] = target: Bcl-2 (UniProt P10415); assay: as above
Target sequence in this assay (P10415 1-217): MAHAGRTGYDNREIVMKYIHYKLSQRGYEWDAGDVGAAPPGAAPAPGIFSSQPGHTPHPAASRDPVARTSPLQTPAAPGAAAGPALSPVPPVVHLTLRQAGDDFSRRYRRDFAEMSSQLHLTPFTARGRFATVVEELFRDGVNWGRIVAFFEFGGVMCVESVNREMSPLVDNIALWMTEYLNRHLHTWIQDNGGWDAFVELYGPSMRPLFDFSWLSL

Sequence of Bcl-xL (UniProt Q07817) (Q07817 1-209): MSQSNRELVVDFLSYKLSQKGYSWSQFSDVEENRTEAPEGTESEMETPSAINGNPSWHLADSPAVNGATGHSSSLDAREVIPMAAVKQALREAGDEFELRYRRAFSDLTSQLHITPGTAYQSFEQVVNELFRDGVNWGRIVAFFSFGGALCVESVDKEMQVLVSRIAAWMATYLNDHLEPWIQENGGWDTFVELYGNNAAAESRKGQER
Sequence of BCL2L15 (chain, as listed by the source): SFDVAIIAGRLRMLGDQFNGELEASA
Sequence of TSC2 (chain, as listed by the source): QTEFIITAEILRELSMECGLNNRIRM
Sequence of ATP2B1 (chain, as listed by the source): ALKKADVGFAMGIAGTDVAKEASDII
Sequence of Bcl-w (Q92843 1-164 Q133R): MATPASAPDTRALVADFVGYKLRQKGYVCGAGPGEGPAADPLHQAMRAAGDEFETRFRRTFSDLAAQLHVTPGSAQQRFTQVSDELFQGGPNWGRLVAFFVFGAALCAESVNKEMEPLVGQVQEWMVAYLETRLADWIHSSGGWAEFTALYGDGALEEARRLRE
Sequence of PSMB1 (chain, as listed by the source): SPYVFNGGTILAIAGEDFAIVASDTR
Sequence of Bcl-xL (from UniProt Q07817-1 1-233) (natural protein) (Q07817 whole entry): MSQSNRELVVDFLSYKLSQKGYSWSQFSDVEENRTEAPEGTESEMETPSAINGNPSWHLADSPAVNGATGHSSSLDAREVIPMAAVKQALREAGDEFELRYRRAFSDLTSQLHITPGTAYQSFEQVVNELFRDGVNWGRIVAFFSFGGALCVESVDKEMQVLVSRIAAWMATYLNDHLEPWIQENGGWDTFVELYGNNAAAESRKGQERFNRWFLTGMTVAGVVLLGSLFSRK
Sequence of Bad BH3 peptide BH3 (Q92934 103-127): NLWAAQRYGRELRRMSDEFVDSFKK
Sequence of C7orf16 (chain, as listed by the source): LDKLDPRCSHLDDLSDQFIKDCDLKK
Sequence of PACSIN2 (chain, as listed by the source): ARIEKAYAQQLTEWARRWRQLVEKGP
Sequence of Bcl-2 (from UniProt P10415 1-239) (natural protein) (P10415 whole entry): as the sequence (P10415 whole entry) above
Sequence of EHMT1 (chain, as listed by the source): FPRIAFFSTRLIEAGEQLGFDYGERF
Sequence of GRIN2D (chain, as listed by the source): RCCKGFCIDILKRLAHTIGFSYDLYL
Sequence of GRIN3A (chain, as listed by the source): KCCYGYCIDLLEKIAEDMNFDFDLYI
Sequence of EIF2C1 (chain, as listed by the source): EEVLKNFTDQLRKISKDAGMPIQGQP
Sequence of EIF2C3 (chain, as listed by the source): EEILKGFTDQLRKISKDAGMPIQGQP
Sequence of ARPC5L (chain, as listed by the source): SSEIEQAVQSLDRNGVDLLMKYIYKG
Sequence of MYO3A (chain, as listed by the source): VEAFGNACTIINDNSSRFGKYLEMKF
Sequence of Mcl-1 (from UniProt Q07820 1-350) (natural protein) (Q07820 whole entry): as the sequence (Q07820 whole entry) above

Work on “Bcl-xL (from UniProt Q07817-1 1-233) (natural protein)” yielded a percent of the Bim BH3 SPOT signal [1] of 11% and a Kd [2] of under 30 nM.

With HRK the SPOT signal as a fraction of Bim BH3's signal on the same receptor and array (Bcl-xL) was 0.56 and 0.38 and the SPOT signal as a fraction of Bim BH3's signal on the same receptor and array (Bfl-1 [3]) was 0.23 and 0.32.

Work on MYO3A yielded an SPOT signal as a fraction of Bim BH3's signal on the same receptor and array (Mcl-1 [4]) of 0.13.

MRPL41 BH3-like peptide showed a Kd (Bcl-2 [5]) of 190 nM.

With KIF5C the SPOT signal as a fraction of Bim BH3's signal on the same receptor and array (Mcl-1 [4]) was 0.07 and 0.16.

Substance EHMT1 has an SPOT signal as a fraction of Bim BH3's signal on the same receptor and array (Bcl-xL) of 0.04.

Work on C7orf16 yielded an SPOT signal as a fraction of Bim BH3's signal on the same receptor and array (Bcl-xL) of 0.02.

With TRIO the SPOT signal as a fraction of Bim BH3's signal on the same receptor and array (Bcl-xL) was 0.06, the SPOT signal as a fraction of Bim BH3's signal on the same receptor and array (Bfl-1 [3]) was 0.04 and 0.05 and the SPOT signal as a fraction of Bim BH3's signal on the same receptor and array (Mcl-1 [4]) was 0.04.

C9orf84 showed an SPOT signal as a fraction of Bim BH3's signal on the same receptor and array (Mcl-1 [4]) of 0.02.

In the case of ARPC5, the SPOT signal as a fraction of Bim BH3's signal on the same receptor and array (Bcl-xL) is reported as 0.03.

Work on GRIN2D yielded an SPOT signal as a fraction of Bim BH3's signal on the same receptor and array (Mcl-1 [4]) of 0.06.

In the case of “Bad BH3 peptide BH3 (from UniProt Q92934)”, the Kd (Bfl-1 [6]) is given as over 2500 nM and the Kd (Mcl-1 [7]) is given as over 2500 nM.

Substance PSMB1 has an SPOT signal as a fraction of Bim BH3's signal on the same receptor and array (Bcl-xL) of 0.02 and an SPOT signal as a fraction of Bim BH3's signal on the same receptor and array (Mcl-1 [4]) of 0.02.

ARPC5L showed an SPOT signal as a fraction of Bim BH3's signal on the same receptor and array (Bcl-xL) of 0.03.

TSC2 gave an SPOT signal as a fraction of Bim BH3's signal on the same receptor and array (Bcl-xL) of 0.15, an SPOT signal as a fraction of Bim BH3's signal on the same receptor and array (Bfl-1 [3]) of 0.03 and an SPOT signal as a fraction of Bim BH3's signal on the same receptor and array (Mcl-1 [4]) of 0.06. It also gave an SPOT signal as a fraction of Bim BH3's signal on the same receptor and array (Bcl-w) of 0.03 and an SPOT signal as a fraction of Bim BH3's signal on the same receptor and array (Bcl-2 [8]) of 0.01.

In the case of EIF2C3, the SPOT signal as a fraction of Bim BH3's signal on the same receptor and array (Bcl-xL) is reported as 0.03.

For TAF6, the SPOT signal as a fraction of Bim BH3's signal on the same receptor and array (Mcl-1 [4]) was 0.03.

In the case of “Bcl-2 (from UniProt P10415 1-239) (natural protein)”, the Kd [2] is reported as under 30 nM.

For EIF2C1, the SPOT signal as a fraction of Bim BH3's signal on the same receptor and array (Bcl-xL) was 0.02.

With CHAF1B the SPOT signal as a fraction of Bim BH3's signal on the same receptor and array (Bcl-xL) was 0.02 and the SPOT signal as a fraction of Bim BH3's signal on the same receptor and array (Mcl-1 [4]) was 0.02.

BCL2L15 showed an SPOT signal as a fraction of Bim BH3's signal on the same receptor and array (Bfl-1 [3]) of 0.52, an SPOT signal as a fraction of Bim BH3's signal on the same receptor and array (Bcl-w) of 0.58 and an SPOT signal as a fraction of Bim BH3's signal on the same receptor and array (Bcl-2 [8]) of 0.75.

With RPL29 the SPOT signal as a fraction of Bim BH3's signal on the same receptor and array (Bcl-xL) was 0.72 and 0.7.

PACSIN2 gave an SPOT signal as a fraction of Bim BH3's signal on the same receptor and array (Bcl-xL) of 0.24.

In the case of SYN1, the SPOT signal as a fraction of Bim BH3's signal on the same receptor and array (Bcl-xL) is reported as 0.1, the SPOT signal as a fraction of Bim BH3's signal on the same receptor and array (Bfl-1 [3]) is reported as 0.04 and the SPOT signal as a fraction of Bim BH3's signal on the same receptor and array (Mcl-1 [4]) is reported as 0.03 and 0.04.

In the case of VPS29, the SPOT signal as a fraction of Bim BH3's signal on the same receptor and array (Bcl-xL) is reported as 0.02 and 0.01 and the SPOT signal as a fraction of Bim BH3's signal on the same receptor and array (Mcl-1 [4]) is reported as 0.02.

GRIN3A showed an SPOT signal as a fraction of Bim BH3's signal on the same receptor and array (Mcl-1 [4]) of 0.03.

For “Mcl-1 (from UniProt Q07820 1-350) (natural protein)”, the Kd [2] was under 30 nM.

In the case of ATP2B1, the SPOT signal as a fraction of Bim BH3's signal on the same receptor and array (Bcl-xL) is reported as 0.02 and the SPOT signal as a fraction of Bim BH3's signal on the same receptor and array (Mcl-1 [4]) is reported as 0.01.

For CYP2A13, the SPOT signal as a fraction of Bim BH3's signal on the same receptor and array (Bcl-xL) was 0.06 and 0.07, the SPOT signal as a fraction of Bim BH3's signal on the same receptor and array (Bfl-1 [3]) was 0.04 and the SPOT signal as a fraction of Bim BH3's signal on the same receptor and array (Mcl-1 [4]) was 0.04 and 0.05.
